Patent publication US20070054848A1 (published 2007)

T1: amino-terminally FLAG-tagged human p75 (human, UniProt P08138 29-427)
T1 construct: also called FLAG-tagged p75; FLAG-p75; not shown: FLAG tag
T1 sequence: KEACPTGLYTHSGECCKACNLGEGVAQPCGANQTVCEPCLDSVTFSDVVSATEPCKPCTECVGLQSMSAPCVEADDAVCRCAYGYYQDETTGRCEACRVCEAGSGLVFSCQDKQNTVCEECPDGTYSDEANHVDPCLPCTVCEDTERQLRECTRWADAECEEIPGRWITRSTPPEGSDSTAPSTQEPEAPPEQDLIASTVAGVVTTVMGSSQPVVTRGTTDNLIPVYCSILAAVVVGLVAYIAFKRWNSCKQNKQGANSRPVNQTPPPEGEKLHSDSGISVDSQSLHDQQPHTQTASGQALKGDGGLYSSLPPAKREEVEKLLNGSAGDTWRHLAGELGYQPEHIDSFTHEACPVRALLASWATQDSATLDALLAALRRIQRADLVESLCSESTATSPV

T2: Nogo receptor, endogenous in P9 cerebellum (UniProt Q99PI8 27-447)
T2 construct: also called NgR; the Nogo receptor
T2 sequence (looked up): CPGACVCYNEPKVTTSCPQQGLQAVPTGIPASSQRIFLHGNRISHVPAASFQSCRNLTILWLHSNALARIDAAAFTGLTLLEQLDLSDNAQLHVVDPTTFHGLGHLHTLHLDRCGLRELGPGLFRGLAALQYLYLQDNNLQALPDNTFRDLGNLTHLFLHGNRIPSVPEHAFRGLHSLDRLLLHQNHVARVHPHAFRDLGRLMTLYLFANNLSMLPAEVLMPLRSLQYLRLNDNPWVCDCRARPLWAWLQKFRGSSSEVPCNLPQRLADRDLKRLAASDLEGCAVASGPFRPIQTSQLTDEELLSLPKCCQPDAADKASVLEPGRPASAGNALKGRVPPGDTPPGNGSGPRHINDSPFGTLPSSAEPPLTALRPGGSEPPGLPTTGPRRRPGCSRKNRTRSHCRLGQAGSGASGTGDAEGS

B1: Rho GDI, endogenous in mouse post-natal cerebellar neurons (other, UniProt Q99PT1 2-204, looked up)
chain: AEQEPTAEQLAQIAAENEEDEHSVNYKPPAQKSIQEIQELDKDDESLRKYKEALLGRVAVSADPNVPNVIVTRLTLVCSTAPGPLELDLTGDLESFKKQSFVLKEGVEYRIKISFRVNREIVSGMKYIQHTYRKGVKIDKTDYMVGSYGPRAEEYEFLTPMEEAPKGMLARGSYNIKSRFTDDDKTDHLSWEWNLTIKKEWKD
B2: recombinant human GST-Rho GDI (other)
chain: MAEQEPTAEQLAQIAAENEEDEHSVNYKPPAQKSIQEIQELDKDDESLRKYKEALLGRVAVSADPNVPNVVVTGLTLVCSSAPGPLELDLTGDLESFKKQSFVLKEGVEYRIKISFRVNREIVSGMKYIQHTYRKGVKIDKTDYMVGSYGPRAEEYEFLTPVEEAPKGMLARGSYSIKSRFTDDDKTDHLSWEWNLTIKKDWKD
notes: Bought (Cytoskeleton); also called recombinant Rho GDI; not shown: glutathione S-transferase (GST) fusion moiety
B3: endogenous p75 of mouse post-natal (P9) cerebellum / cerebellar neurons (receptor, UniProt Q9Z0W1 32-427, looked up)
chain: KETCSTGMYTHSGECCKACNLGEGVAQPCGANQTVCEPCLDSVTFSDVVSATEPCKPCTECLGLQSMSAPCVEADDAVCRCSYGYYQDEETGRCEACSVCGVGSGLVFSCQDKQNTVCEECPEGTYSDEANHVDPCLPCTVCEDTERQLRECTPWADAECEEIPGRWITRSTPPEGSDVTTPSTQEPEAPPERDLIASTVADTVTTVMGSSQPVVTRGTADNLIPVYCSILAAVVVGLVAYIAFKRWNSCKQNKQGANSRPVNQTPPPEGEKLHSDSGISVDSQSLHDQQTHTQTASGQALKGDGNLYSSLPLTKREEVEKLLNGDTWRHLAGELGYQPEHIDSFTHEACPVRALLASWGAQDSATLDALLAALRRIQRADIVESLCSESTATSPV
notes: Endogenous protein in lysates; also called p75NTR

Tests used:
[1] = target: B3; experiment: figure legend (FIG. 6C): co-immunoprecipitation of p75 and Rho GDI from cerebellar neurons
Method: The lysates were centrifuged at 13,000×g for 20 min, and the supernatants were collected. […] The immunocomplex was collected with protein A sepharose (Amersham Pharmacia). The suspension was centrifuged at 1,000×g for 5 min. The pellets were washed 4 times with lysis buffer, and subjected to SDS-PAGE, followed by immunoblot analysis using anti-Rho GDIα antibody (Sigma) or anti-RhoA antibody (Santa Cruz Biotechnology).

[2] = target: T1, amino-terminally FLAG-tagged human p75; experiment: co-precipitation: p75 precipitated from transfected 293T cells (anti-FLAG, protein A sepharose) incubated with GST-Rho GDI, anti-GST blot
Method: The resultant precipitates were electrophoretically transferred to polyvinylidene difluoride membranes after SDS/PAGE and were immunoblotted with the anti-GST antibody (Sigma). To examine the nucleotide dependency, GST-RhoA was preloaded with the appropriate nucleotide, and EDTA was replaced with 10 mM MgCl₂.

[3] = target: T2, Nogo receptor, endogenous in P9 …; experiment: figure legend (FIG. 11C)

Binder: B1
binding result [1]: binds

Binder: B2
binding result [2]: binds

Binder: B3
binding result [3]: binds
